We go through 5 molecules from patent publication US20160068605A1 (Janssen / Centocor, published 2016).

A value given as a limit tells only on which side of the number the result lay.

The target in assay [1] is T1, Recombinant human CD123 SP1 ECD-His tag protein (human, UniProt P26951 20-305).
T1 construct: bought from R&D Systems (#301-R3/CF); biotinylated for some assays; also called rhCD123 SP1; huCD123 ECD SP1
T1 sequence: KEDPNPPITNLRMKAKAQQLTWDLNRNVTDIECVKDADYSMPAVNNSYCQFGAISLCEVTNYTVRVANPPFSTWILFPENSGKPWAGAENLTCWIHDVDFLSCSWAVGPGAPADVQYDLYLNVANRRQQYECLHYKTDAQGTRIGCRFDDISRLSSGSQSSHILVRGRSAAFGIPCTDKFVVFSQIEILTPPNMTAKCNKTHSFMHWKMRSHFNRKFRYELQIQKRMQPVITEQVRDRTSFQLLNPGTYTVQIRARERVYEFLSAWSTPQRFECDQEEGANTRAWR
Nature of the assay: SPR Biacore 3000, captured Fab. Here is the method:
(§1) Kinetic studies were performed at 25° C. using a Biacore 3000 (BIAcore, Inc., now part of GE Healthcare). […] Sheep anti-Human Fd specific antibody (The binding site Prod # PC075) was covalently attached to two flow cells (normally 3 and 4) of the carboxymethyl dextran coated gold surfaces (CM-5 Chip, Biacore). The carboxymethyl groups of dextran were activated with N-Ethyl-N′-(3-Dimethylaminopropyl)carbodiimide (EDC) and N-hydroxysuccinimide (NHS). The antibodies were coupled at pH 4.5 in 10 mM sodium acetate. Any remaining reactive sites on the surface were blocked by reaction with ethanolamine. […] Association data was collected for 2 min followed by 10 min of dissociation. The surface was regenerated with 30 μL of 100 mM H3PO4 100 μL/min. All samples were prepared in D-PBS containing 3 mM EDTA and 0.005% surfactant P20. Data reported is the difference in SPR signal between the flow cell containing the captured antibody or Fab and a reference cell without captured antibody or Fab. Additional instrumental contributions to the signal were removed by subtraction of the data from the blank injection from the reference-subtracted signal. Data were performed in triplicate and analyzed by fitting association and dissociation phases at all concentrations (global fit) with a 1:1 binding model using the BIAevaluation software (BIAcore, Inc.). […] Data presented is an average.

The target of assay [2] is T2, Recombinant human CD123 SP2 ECD protein (human, UniProt P26951 101-303).
T2 construct: also called rhCD123 SP2; CD123 ECD SP2
T2 sequence: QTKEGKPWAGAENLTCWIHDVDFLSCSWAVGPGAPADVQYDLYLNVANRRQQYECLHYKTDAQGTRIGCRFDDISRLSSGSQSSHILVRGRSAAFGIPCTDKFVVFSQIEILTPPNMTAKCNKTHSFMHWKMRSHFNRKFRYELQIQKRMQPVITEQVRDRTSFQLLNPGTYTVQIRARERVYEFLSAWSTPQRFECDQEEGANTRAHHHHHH
As to the kind of experiment: SPR Biacore 3000, captured Fab; footnote: assay response is lower than expected. Here is the method:
as §1

Assay [3] deals with T1, Recombinant human CD123 SP1 ECD-His tag …. As to the kind of experiment: SPR ProteOn, captured mAb.
Assay [4] concerns the target T3, cyno CD123 ECD displayed on pDisplay-transfected cells (cynomolgus monkey).
T3 construct: ECD anchored on the surface of stably transfected HEK293 cells; also called cynoCD123 SP1 cells; cynoCD123 cells
T3 chain: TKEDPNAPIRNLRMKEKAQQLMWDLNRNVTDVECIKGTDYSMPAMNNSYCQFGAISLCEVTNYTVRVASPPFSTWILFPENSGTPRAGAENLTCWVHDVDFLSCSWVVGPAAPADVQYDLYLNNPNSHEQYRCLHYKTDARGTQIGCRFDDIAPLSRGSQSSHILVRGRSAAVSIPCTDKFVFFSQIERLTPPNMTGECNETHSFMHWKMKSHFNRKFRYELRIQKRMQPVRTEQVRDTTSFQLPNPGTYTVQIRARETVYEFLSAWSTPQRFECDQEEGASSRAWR
As to the kind of experiment: MSD cell binding assay, signal 3x over background. The protocol:
The object of the screening assay was to identify antibodies that bound to cells expressing hCD123 SP1 and SP2 as well as cross reactivity with cells expressing cynoCD123 SP1.
Cells were immobilized and phages were assayed in triplicate. […] 5000 cells per well were plated into a 384 well plate (MA6000, cat. L21XB, MSD) and allowed to adhere for 2 hr. Cells were then blocked with 20% FBS in PBS (Gibco) for 15 mins. Antibody supernatants were then added and left at RT for 1 hr. Cells were washed 3 times with PBS and a ruthenium labeled secondary antibody (Jackson Immuno Research) was then added at 1 μg/mL and incubated for 1 hr at room temperature. A further washing step was then applied and 35 μL per well of MSD Read buffer T (surfactant free) was then added and incubated for 30 min for detection. Plates were then read using Sector Imager 2400 (MSD). Data was normalized to controls and graphed using GraphPad Prism Version 5. A positive binder was determined to be a hit with a signal 3× greater than background (FIGS. 2A, B and C).

The target of assay [5] is IL3RA-PK (CD123 tagged with ProLink) in HEK293 IL3RA-PK/CSF2RB-EA cells (UniProt P26951 19-378). Nature of the assay: cell-based or functional assay.
Assay [6] has as its target T3, cyno CD123 ECD displayed on …. Nature of the assay: MSD-CAT on pDisplay cells. Here is the method:
(§2) After equilibration the plate was centrifuged for 5 min ˜1000 rpm and free anti-CD3 detected on the supernatant. […] The assay buffer was removed without washing and 50 μL/well of 0.7 μg/mL of biotinylated antigen in assay buffer were added to MSD plates and incubated overnight (˜16 hr at 4° C.). After overnight incubation, the plates were blocked by adding 150 μL/well of assay buffer without removing coating antigen, incubated for ˜1 hr at ambient temperature and washed 5 times with wash buffer (assay buffer without BSA). 50 μL/well of the supernantants from samples plate were transferred to antigen-coated plates, incubated for 60 min, and then washed three times with wash Buffer. After this 50 μL per well of ruthenium labeled detection antibody(anti-human H+L) were added and incubated for 1 hr. After 1 hr the plates were washed and 150 μL of MSD Read Buffer (prepared by diluting 1:4 of stock into d. H₂O) were added per well. The plates were read immediately on the MSD Sector Imager 6000 Reader for luminescence levels. ECL signal detected by MSD was expressed in term of % free antibody in the mixture and the data was analyzed to determine affinity using a user defined equation (derived from the law of mass action) introduced in Prism software.

Assay [7] addresses T2, Recombinant human CD123 SP2 ECD protein. Nature of the assay: SPR Biacore 3000, captured Fab. Here is the method:
as §1

Assay [8] deals with T4, human CD123 SP1 ECD displayed on pDisplay-transfected cells (human, UniProt P26951 20-305).
T4 construct: ECD anchored on the surface of stably transfected HEK293 cells by the PDGFR transmembrane domain; also called hCD123 SP1 cells; hCD123 cells
T4 sequence: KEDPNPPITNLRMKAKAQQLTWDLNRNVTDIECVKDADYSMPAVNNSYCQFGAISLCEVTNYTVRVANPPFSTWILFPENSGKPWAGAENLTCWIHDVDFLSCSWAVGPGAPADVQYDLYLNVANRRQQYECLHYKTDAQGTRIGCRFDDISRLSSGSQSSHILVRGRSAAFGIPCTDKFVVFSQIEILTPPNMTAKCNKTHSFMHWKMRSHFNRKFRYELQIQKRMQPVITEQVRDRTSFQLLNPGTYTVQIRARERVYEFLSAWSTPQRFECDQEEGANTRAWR
Nature of the assay: MSD-CAT, hCD123 cells, assay-1. The protocol:
as §2

The target of assay [9] is T4, human CD123 SP1 ECD displayed on …. As to the kind of experiment: MSD-CAT, hCD123 cells, assay-2. The protocol:
as §2

In assay [10] the target is T3, cyno CD123 ECD displayed on …. As to the kind of experiment: MSD-CAT, cynoCD123 cells, assay-1. Here is the method: (§3) The MSD-CAT was developed in-house as a label-free method to determine affinity using intact cells in a high throughput format. […] Cell lines used were human pDisplay CD and cyno pDisplay CD123SP1. […] These samples were prepared in DMEM Glutamax medium containing 0.05% Azide, 1% BSA, 3 mM EDTA. The receptor numbers of (3.15-4.18)×10⁶ hCD123/cell and (4.78-9.24) 10⁶ cyCD123/cell were converted to M receptor concentration in the mixture on the basis of the volume of reaction, the cell density (cells/L) and the Avogadro's number. […] After equilibration the plate was centrifuged for 5 min ˜1000 rpm and free anti-CD3 detected on the supernatant.

The target is the same in assay [11]. As to the kind of experiment: MSD-CAT, cynoCD123 cells, assay-2. The protocol:
as §3

Assay [12] deals with T4, human CD123 SP1 ECD displayed on …. Nature of the assay: MSD cell binding on 293F pDisplay cells; fold change over background; parental 293F cells as control.
Assay [13] concerns the target T5, human CD123 SP2 ECD displayed on pDisplay-transfected cells (human, UniProt P26951 101-305).
T5 construct: ECD anchored on the surface of stably transfected HEK293 cells; also called hCD123 SP2 cells; pDisplay CD123SP2
T5 sequence: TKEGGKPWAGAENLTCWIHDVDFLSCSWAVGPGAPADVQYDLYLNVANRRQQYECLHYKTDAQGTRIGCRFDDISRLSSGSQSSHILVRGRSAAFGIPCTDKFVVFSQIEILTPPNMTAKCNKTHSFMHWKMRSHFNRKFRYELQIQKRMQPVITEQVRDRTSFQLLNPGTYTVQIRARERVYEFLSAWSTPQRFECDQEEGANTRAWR
Described as above.

Assay [14] has as its target T3, cyno CD123 ECD displayed on …. Described as above.

B1: I3RB121 (Fab, V domains shown)
VH: QVQLVQSGAEVKKPGSSVKVSCKASGGTFSSYAISWVRQAPGQGLEWMGGIIPIFGTANYAQKFQGRVTITADESTSTAYMELSSLRSEDTAVYYCARHLFWDAGPLDYWGQGTLVTVSS
VL: DIQMTQSPSSLSASVGDRVTITCRASQSISSYLNWYQQKPGKAPKLLIYAASSLQSGVPSRFSGSGSGTDFTLTISSLQPEDFATYYCQQYFSPPYTFGQGTKVEIK
notes: also called Fab of I3RB35
As for B1, in assay [1], the Kd is 6.3 nM, the koff turned out to be 0.00245 s⁻¹ and the kon stood at 387000 M⁻¹ s⁻¹. Also, the Kd in assay [2] came to 1.2 nM.

B2: I3RB21 (antibody, IgG1, V domains shown)
VH: QVQLVQSGAEVKKPGSSVKVSCKASGGTFSSYAISWVRQAPGQGLEWMGGIIPIFGTANYAQKFQGRVTITADESTSTAYMELSSLRSEDTAVYYCAREGWWGQGKFDYWGQGTLVTVSS
VL: EIVLTQSPATLSLSPGERATLSCRASQSVANFLAWYQQKPGQAPRLLIYAASNRATGIPARFSGSGSGTDFTLTISSLEPEDFAVYYCQQYFHWPYTFGQGTKVEIK
notes: IgG1
Take B2: in assay [3], the Kd was found to be 2.19 nM, the koff is 0.00114 s⁻¹ and the kon came out at 521000 M⁻¹ s⁻¹. Moreover, the binding result in assay [4] is listed as “binds”.

B3: I3RB217 (antibody, human IgG4 S228P, kappa, F234A L235A, V domains shown)
VH: EVQLVQSGAEVKKPGESLKISCKGSGYSFTSYWISWVRQMPGKGLEWMGIIDPSDSDTRYSPSFQGQVTISADKSISTAYLQWSSLKASDTAMYYCARGDGSTDLDYWGQGTLVTVSS
VL: EIVLTQSPGTLSLSPGERATLSCRASQSVSSSYLAWYQQKPGQAPRLLIYGASSRATGIPDRFSGSGSGTDFTLTISRLEPEDFAVYYCQQDYGFPWTFGQGTKVEIKR
Consider B3, for which the “IC50 (read off the curve): IL-3-induced CD123/CD131 heteromerization (RLU)” value in [5] was about 0.1 µg/mL.

B4: I3RB119 (Fab, V domains shown)
VH: EVQLVQSGAEVKKPGESLKISCKGSGYSFTSYWISWVRQMPGKGLEWMGIIDPSDSDTRYSPSFQGQVTISADKSISTAYLQWSSLKASDTAMYYCARGDGSTDLDYWGQGTLVTVSS
VL: EIVLTQSPGTLSLSPGERATLSCRASQSVSSSYLAWYQQKPGQAPRLLIYGASSRATGIPDRFSGSGSGTDFTLTISRLEPEDFAVYYCQQDYGFPWTFGQGTKVEIK
notes: also called Fab I3RB119; I3RB18 Fab
As for B4, in assay [6], the “fold weaker than to human CD123 SP1” value was over 10 fold. Moreover, the Kd in assay [1] was 1.8 nM; in assay [7] it was 0.4 nM; in assay [8] it was 0.293 nM; in assay [9], 0.367 nM; in assay [10] it was over 15 nM; in [11] it was over 11.9 nM. Moreover, in [1], the koff is 0.000891 s⁻¹. For the same molecule, in [1], the kon came to 493000 M⁻¹ s⁻¹.

B5: I3RB25 (antibody, V domains shown)
VH: QVQLVQSGAEVKKPGSSVKVSCKASGGTFSSYGISWVRQAPGQGLEWMGGISAIFGNANYAQKFQGRVTITADESTSTAYMELSSLRSEDTAVYYCARRFKWWESYFDYWGQGTLVTVSS
VL: not shown
For B5, the binding result in [12], in assay [13] and in assay [14] was “no binding (tested: 10 µg/mL)” throughout.
